From publication PMC7147772, “Biochemical characterization of the Nocardia lactamdurans ACV synthetase” (PLoS ONE, 2020) come the findings set out here.

Experiment in all cases: ACV tripeptide formation, HPLC/MS
Common to all, as to format: biochemical, Amycolatopsis lactamdurans

Data set [1] deals with N[C@@H](CCCC(=O)O)C(=O)O. The settings on record: L-Cys and L-Val co-substrates, 5 mM ATP, 5 mM MgCl2, 2 mM DTT, CoA and Sfp, pH 7.0, 30 °C, module 1.
Data set [2] deals with N[C@@H](CS)C(=O)O. The settings on record: L-α-Aaa and L-Val co-substrates, 5 mM ATP, 5 mM MgCl2, 2 mM DTT, CoA and Sfp, pH 7.0, 30 °C, module 2.
In data set [3] the test system is CC(C)[C@H](N)C(=O)O. The settings on record: L-α-Aaa and L-Cys co-substrates, 5 mM ATP, 5 mM MgCl2, 2 mM DTT, CoA and Sfp, pH 7.0, 30 °C, module 3.

For the substance “Nl ACVS (L-δ-(α-aminoadipoyl)-L-cysteinyl-D-valine synthetase) (Amycolatopsis lactamdurans)”, the figures for the Km in data set [1], in data set [2] and in data set [3] were 640 ± 16 µM, 40 ± 1 µM and 150 ± 4 µM, respectively.
